Assay results published in patent US20240327535A1 (EISAI R AND D MANAGEMENT, published 2024).
Like-named read-outs stand apart in the source and are kept apart here.

T1: extracellular domain of human BCMA (human, UniProt Q02223 1-54)
T1 construct: amine-linked to Octet AR2G tips; also called hsBCMA; BCMA (human)
T1 sequence: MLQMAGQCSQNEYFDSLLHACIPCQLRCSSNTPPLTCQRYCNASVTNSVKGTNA


Experiments:
Test in all cases: Octet BLI; Fab 200 nM
[1] = target: T2, extracellular domain of rhesus monkey BCMA (rhesus monkey, UniProt F7FFA0 1-53)
T2 construct: extracellular domain; also called RhBCMA

[2] = target: T1, extracellular domain of human BCMA
[3] = target: T1, extracellular domain of human BCMA; remark: listed apart in the source

T2 sequence (F7FFA0 entry or part of it): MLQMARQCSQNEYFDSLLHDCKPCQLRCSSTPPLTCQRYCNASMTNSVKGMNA

Binder	Kd [1] [nM]	Kd [2] [nM]	Kd [3] [nM]
AB200-R1H32-R2Vk1 (Fab, V domains shown) VH: QVQLVQSGAEVKKPGSSVKVSCKASGGTFSNYWMHWVRQAPGQGLEWMGATYRSHSDTYYNQKFKSRVTITADKSTSTAYMELSSLRSEDTAVYYCARGAIYHGYDVIDNWGQGTLVTVSS VL: DIQMTQSPSSLSASVGDRVTITCRASQSISSYLNWYQQKPGKAPKLLIYAASSLQSGVPSRFSGSGSGTDFTLTISSLQPEDFATYYCQQFRKLPWSFGQGTKLEIKR	5.42	1.27	
AB200-R1H32-R2Vk3 (Fab, V domains shown) VH: QVQLVQSGAEVKKPGSSVKVSCKASGGTFSNYWMHWVRQAPGQGLEWMGATYRSHSDTYYNQKFKSRVTITADKSTSTAYMELSSLRSEDTAVYYCARGAIYHGYDVIDNWGQGTLVTVSS VL: DIQMTQSPSSLSASVGDRVTITCRASQSISSYLNWYQQKPGKAPKLLIYATSNLQSGVPSRFSGSGSGTDFTLTISSLQPEDFATYYCQQFRKLPWSFGQGTKLEIKR	4.38	1.01	
AB200-R1H32-R2Vk11 (Fab, V domains shown) VH: QVQLVQSGAEVKKPGSSVKVSCKASGGTFSNYWMHWVRQAPGQGLEWMGATYRSHSDTYYNQKFKSRVTITADKSTSTAYMELSSLRSEDTAVYYCARGAIYHGYDVIDNWGQGTLVTVSS VL: DIQMTQSPSSLSASVGDRVTITCRASQSISSYLNWYQQKPGKAPKLLIYAASSLQSGVPSRFSGSGSGTDFTLTISSLQPEDFATYYCQQFRRLPWTFGQGTKLEIKR	4.1	0.936	
AB200-R1H32-R2Vk12 (Fab, V domains shown) VH: QVQLVQSGAEVKKPGSSVKVSCKASGGTFSNYWMHWVRQAPGQGLEWMGATYRSHSDTYYNQKFKSRVTITADKSTSTAYMELSSLRSEDTAVYYCARGAIYHGYDVIDNWGQGTLVTVSS VL: DIQMTQSPSSLSASVGDRVTITCRASQSISSYLNWYQQKPGKAPKLLIYAASSLQSGVPSRFSGSGSGTDFTLTISSLQPEDFATYYCQQYRKIPWSFGQGTKLEIKR	9.12	1.53	
AB200-R1H32-R2Vk13 (Fab, V domains shown) VH: QVQLVQSGAEVKKPGSSVKVSCKASGGTFSNYWMHWVRQAPGQGLEWMGATYRSHSDTYYNQKFKSRVTITADKSTSTAYMELSSLRSEDTAVYYCARGAIYHGYDVIDNWGQGTLVTVSS VL: DIQMTQSPSSLSASVGDRVTITCRASQSISSYLNWYQQKPGKAPKLLIYAASSLQSGVPSRFSGSGSGTDFTLTISSLQPEDFATYYCQQFRKIPWTFGQGTKLEIKR	6.59	2.2	
AB200-R1H32-R2Vk21 (Fab, V domains shown) VH: QVQLVQSGAEVKKPGSSVKVSCKASGGTFSNYWMHWVRQAPGQGLEWMGATYRSHSDTYYNQKFKSRVTITADKSTSTAYMELSSLRSEDTAVYYCARGAIYHGYDVIDNWGQGTLVTVSS VL: DIQMTQSPSSLSASVGDRVTITCRASQSISSYLNWYQQKPGKAPKLLIYATSNLQSGVPSRFSGSGSGTDFTLTISSLQPEDFATYYCQQFRRLPWTFGQGTKLEIKR	3.31	0.8	
AB200-R1H32-R2Vk24 (Fab, V domains shown) VH: QVQLVQSGAEVKKPGSSVKVSCKASGGTFSNYWMHWVRQAPGQGLEWMGATYRSHSDTYYNQKFKSRVTITADKSTSTAYMELSSLRSEDTAVYYCARGAIYHGYDVIDNWGQGTLVTVSS VL: DIQMTQSPSSLSASVGDRVTITCRASQSISSYLNWYQQKPGKAPKLLIYATSNIQSGVPSRFSGSGSGTDFTLTISSLQPEDFATYYCQQYRRLPWSFGQGTKLEIKR	4.89	1.05	
AB200-R1H32-R2Vk27 (Fab, V domains shown) VH: QVQLVQSGAEVKKPGSSVKVSCKASGGTFSNYWMHWVRQAPGQGLEWMGATYRSHSDTYYNQKFKSRVTITADKSTSTAYMELSSLRSEDTAVYYCARGAIYHGYDVIDNWGQGTLVTVSS VL: DIQMTQSPSSLSASVGDRVTITCRASQSISSYLNWYQQKPGKAPKLLIYATSNIQSGVPSRFSGSGSGTDFTLTISSLQPEDFATYYCQQYRKIPWSFGQGTKLEIKR	6.9	1.21	
AB200-R1H32-R2Vk28 (Fab, V domains shown) VH: QVQLVQSGAEVKKPGSSVKVSCKASGGTFSNYWMHWVRQAPGQGLEWMGATYRSHSDTYYNQKFKSRVTITADKSTSTAYMELSSLRSEDTAVYYCARGAIYHGYDVIDNWGQGTLVTVSS VL: DIQMTQSPSSLSASVGDRVTITCRASQSISSYLNWYQQKPGKAPKLLIYATSNIQSGVPSRFSGSGSGTDFTLTISSLQPEDFATYYCQQFRKIPWTFGQGTKLEIKR	5.99	1.19	
AB200-R1H32-R2Vk31 (Fab, V domains shown) VH: QVQLVQSGAEVKKPGSSVKVSCKASGGTFSNYWMHWVRQAPGQGLEWMGATYRSHSDTYYNQKFKSRVTITADKSTSTAYMELSSLRSEDTAVYYCARGAIYHGYDVIDNWGQGTLVTVSS VL: DIQMTQSPSSLSASVGDRVTITCRASQSISSYLNWYQQKPGKAPKLLIYATSNLQIGVPSRFSGSGSGTDFTLTISSLQPEDFATYYCQQFRRLPWTFGQGTKLEIKR	2.82	0.665	
AB200-R1H32-R2Vk35 (Fab, V domains shown) VH: QVQLVQSGAEVKKPGSSVKVSCKASGGTFSNYWMHWVRQAPGQGLEWMGATYRSHSDTYYNQKFKSRVTITADKSTSTAYMELSSLRSEDTAVYYCARGAIYHGYDVIDNWGQGTLVTVSS VL: DIQMTQSPSSLSASVGDRVTITCRASQSISSYINWYQQKPGKAPKLLIYATSNLQSGVPSRFSGSGSGTDFTLTISSLQPEDFATYYCQQYRRIPWTFGQGTKLEIKR	4.13	0.843	
AB200-R1H32-R2Vk36 (Fab, V domains shown) VH: QVQLVQSGAEVKKPGSSVKVSCKASGGTFSNYWMHWVRQAPGQGLEWMGATYRSHSDTYYNQKFKSRVTITADKSTSTAYMELSSLRSEDTAVYYCARGAIYHGYDVIDNWGQGTLVTVSS VL: DIQMTQSPSSLSASVGDRVTITCRASQSISSYINWYQQKPGKAPKLLIYATSNLQSGVPSRFSGSGSGTDFTLTISSLQPEDFATYYCQQFRRLPWTFGQGTKLEIKR	3.45	0.83	
AB200-R1H32-R2Vk39 (Fab, V domains shown) VH: QVQLVQSGAEVKKPGSSVKVSCKASGGTFSNYWMHWVRQAPGQGLEWMGATYRSHSDTYYNQKFKSRVTITADKSTSTAYMELSSLRSEDTAVYYCARGAIYHGYDVIDNWGQGTLVTVSS VL: DIQMTQSPSSLSASVGDRVTITCRASQSISSYINWYQQKPGKAPKLLIYATSNIQSGVPSRFSGSGSGTDFTLTISSLQPEDFATYYCQQYRRLPWSFGQGTKLEIKR	4.76	1.06	
AB200-R1H32-R2Vk41 (Fab, V domains shown) VH: QVQLVQSGAEVKKPGSSVKVSCKASGGTFSNYWMHWVRQAPGQGLEWMGATYRSHSDTYYNQKFKSRVTITADKSTSTAYMELSSLRSEDTAVYYCARGAIYHGYDVIDNWGQGTLVTVSS VL: DIQMTQSPSSLSASVGDRVTITCRASQSISSYINWYQQKPGKAPKLLIYATSNIQSGVPSRFSGSGSGTDFTLTISSLQPEDFATYYCQQFRRLPWTFGQGTKLEIKR	4.26	1.19	
AB200-R1H32-R2Vk42 (Fab, V domains shown) VH: QVQLVQSGAEVKKPGSSVKVSCKASGGTFSNYWMHWVRQAPGQGLEWMGATYRSHSDTYYNQKFKSRVTITADKSTSTAYMELSSLRSEDTAVYYCARGAIYHGYDVIDNWGQGTLVTVSS VL: DIQMTQSPSSLSASVGDRVTITCRASQSISSYINWYQQKPGKAPKLLIYATSNIQSGVPSRFSGSGSGTDFTLTISSLQPEDFATYYCQQYRKIPWSFGQGTKLEIKR	5.93	1.04	
AB200-R1H32-R2Vk45 (Fab, V domains shown) VH: QVQLVQSGAEVKKPGSSVKVSCKASGGTFSNYWMHWVRQAPGQGLEWMGATYRSHSDTYYNQKFKSRVTITADKSTSTAYMELSSLRSEDTAVYYCARGAIYHGYDVIDNWGQGTLVTVSS VL: DIQMTQSPSSLSASVGDRVTITCRASQSISSYINWYQQKPGKAPKLLIYATSNLQIGVPSRFSGSGSGTDFTLTISSLQPEDFATYYCQQYRRIPWTFGQGTKLEIKR	3.33	0.714	
AB200-R1H26-R2Vk15 (Fab, V domains shown) VH: QVQLVQSGAEVKKPGSSVKVSCKASGGSFSNYWMHWVRQAPGQGLEWMGATYRIHSDTFYNQKFKGRVTITADKSTSTAYMELSSLRSEDTAVYYCARGAIYHGYDVLDNWGQGTLVTVSS VL: DIQMTQSPSSLSASVGDRVTITCRASQSISSYINWYQQKPGKAPKLLIYAASSLQSGVPSRFSGSGSGTDFTLTISSLQPEDFATYYCQQYRRIPWTFGQGTKLEIKR			3.27
AB200-R1H26-R2Vk16 (Fab, V domains shown) VH: QVQLVQSGAEVKKPGSSVKVSCKASGGSFSNYWMHWVRQAPGQGLEWMGATYRIHSDTFYNQKFKGRVTITADKSTSTAYMELSSLRSEDTAVYYCARGAIYHGYDVLDNWGQGTLVTVSS VL: DIQMTQSPSSLSASVGDRVTITCRASQSISSYINWYQQKPGKAPKLLIYAASSLQSGVPSRFSGSGSGTDFTLTISSLQPEDFATYYCQQFRRLPWTFGQGTKLEIKR			2.09
AB200-R1H26-R2Vk17 (Fab, V domains shown) VH: QVQLVQSGAEVKKPGSSVKVSCKASGGSFSNYWMHWVRQAPGQGLEWMGATYRIHSDTFYNQKFKGRVTITADKSTSTAYMELSSLRSEDTAVYYCARGAIYHGYDVLDNWGQGTLVTVSS VL: DIQMTQSPSSLSASVGDRVTITCRASQSISSYINWYQQKPGKAPKLLIYAASSLQSGVPSRFSGSGSGTDFTLTISSLQPEDFATYYCQQYRKIPWSFGQGTKLEIKR			3.59
AB200-R1H26-R2Vk18 (Fab, V domains shown) VH: QVQLVQSGAEVKKPGSSVKVSCKASGGSFSNYWMHWVRQAPGQGLEWMGATYRIHSDTFYNQKFKGRVTITADKSTSTAYMELSSLRSEDTAVYYCARGAIYHGYDVLDNWGQGTLVTVSS VL: DIQMTQSPSSLSASVGDRVTITCRASQSISSYINWYQQKPGKAPKLLIYAASSLQSGVPSRFSGSGSGTDFTLTISSLQPEDFATYYCQQFRKIPWTFGQGTKLEIKR			3.44
